These results are taken from publication PMC11812572.

Assay [1] has as its target microtubules polymerised from porcine brain tubulin (GMPCPP-stabilised microtubules and seeds, and dynamic microtubules elongating or nucleated from Atto647N- or Atto647-tubulin) (porcine (endogenous in pig brain)) (UniProt P02550). Nature of the assay: TIRF microscopy; microtubules elongating from surface-immobilized GMPCPP-seeds severed by laser ablation in 40 nM mScarlet-NuMA^FL and 10 µM Atto647N-tubulin; NuMA microscopy buffer, 30°C; new minus and plus ends scored.

For assay [2] the target is unchanged. The assay can be described thus: TIRF microscopy; γTuRC nucleation assay: biotinylated mBFP-γTuRC immobilized on the surface, 10 µM Atto647-tubulin and 5-30 nM mScarlet-NuMA^FL; γTuRC-nucleated and spontaneously (solution-) nucleated microtubules compared; γTuRC microscopy buffer, 33°C.

Sequence of microtubules polymerised from porcine brain tubulin (GMPCPP-stabilised microtubules and seeds, and dynamic microtubules elongating or nucleated from Atto647N- or Atto647-tubulin) (porcine (endogenous in pig brain)) (P02550 other isoform, or with tags, fused parts or gaps, chain 1 of 2): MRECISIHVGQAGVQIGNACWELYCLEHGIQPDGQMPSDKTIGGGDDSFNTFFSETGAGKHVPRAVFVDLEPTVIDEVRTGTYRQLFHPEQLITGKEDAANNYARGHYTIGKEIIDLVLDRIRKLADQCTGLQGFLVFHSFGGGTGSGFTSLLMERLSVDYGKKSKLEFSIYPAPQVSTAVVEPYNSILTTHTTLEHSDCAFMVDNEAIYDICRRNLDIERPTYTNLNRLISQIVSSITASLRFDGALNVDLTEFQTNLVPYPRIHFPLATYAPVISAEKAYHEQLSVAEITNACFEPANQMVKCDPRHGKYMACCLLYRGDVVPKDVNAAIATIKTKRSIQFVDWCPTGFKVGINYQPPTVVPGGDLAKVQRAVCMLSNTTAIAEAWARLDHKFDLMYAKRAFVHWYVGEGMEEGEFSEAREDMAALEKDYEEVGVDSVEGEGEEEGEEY
Sequence of microtubules polymerised from porcine brain tubulin (GMPCPP-stabilised microtubules and seeds, and dynamic microtubules elongating or nucleated from Atto647N- or Atto647-tubulin) (porcine (endogenous in pig brain)) (chain, as listed by the source, chain 2 of 2): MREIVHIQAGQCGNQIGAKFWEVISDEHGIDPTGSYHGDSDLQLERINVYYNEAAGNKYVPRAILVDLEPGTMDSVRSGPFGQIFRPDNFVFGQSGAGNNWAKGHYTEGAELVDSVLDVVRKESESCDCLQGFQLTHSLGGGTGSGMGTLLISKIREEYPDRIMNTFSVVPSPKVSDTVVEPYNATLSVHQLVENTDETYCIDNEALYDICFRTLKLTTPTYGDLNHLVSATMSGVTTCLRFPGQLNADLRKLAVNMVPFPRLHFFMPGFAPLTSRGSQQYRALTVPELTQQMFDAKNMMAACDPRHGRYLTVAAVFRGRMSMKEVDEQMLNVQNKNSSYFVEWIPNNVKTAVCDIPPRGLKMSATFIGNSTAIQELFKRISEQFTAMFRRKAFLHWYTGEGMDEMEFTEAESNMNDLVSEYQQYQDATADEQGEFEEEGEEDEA

For the substance “mScarlet-tagged full-length human NuMA, mScarlet-NuMA^FL, Q14980-1 1-2115”, the percent of ablation-generated minus ends with NuMA bound in assay [1] was found to be 83%. Also, the percent of minus ends of spontaneously nucleated microtubules with strong NuMA accumulation (highest NuMA concentration) in assay [2] is 93%.
